Columns and labels:
Format in all cases: in vivo
LpL = LpL activity in post-heparin plasma (total lipase minus HL); settings: human AA4RP transgenic mice, FVB/N background
Method: (§1) The test was carried out on post-heparin plasma (collected 5 min after heparin injection) from transgenic mice and control mice with a FVB/N genetic background. Total lipase activity was determined by incubation with radiolabelled triolein and in the presence of a cofactor (apo CII). HL activity was determined after incubation of each plasma sample with triolein but in this case in the absence of apo CII and in the presence of 1 M NaCl to eliminate LpL activity. Lipase activity in each plasma sample was then calculated by determining the number of moles of free fatty acid. Finally, LpL activity was calculated by subtracting HL activity from total lipase activity.

[1] = Triglyceride distribution in VLDL, LDL and HDL (Superose 6 FPLC) of plasma; settings: AA4RP transgenic mice versus control mice, plasma fractions
Method: The distribution of triglycerides in VLDL, LDL and HDL was studied on 200 μl fractions of plasma from AA4RP transgenic mice or control mice maintained on a lipid-rich diet.
The different particles were fractionated on a Pharmacia Superose 6 column integrated in an AKTA FPLC system (Pharmacia Biotech, Umeå, Sweden). The different fractions were eluted with 0.01 M PBS, 0.1 M NaCl, pH 7.2 at a flow rate of 0.2 ml/min. The triglyceride concentration in each fraction was determined as described hereinabove.

apo CIII = experiment: Apo CIII assay by immuno-nephelometry in mice overexpressing human AA4RP; settings: AA4RP transgenic mice, lipid-rich diet
Method: Apo CIII in mice overexpressing human AA4RP was assayed by immuno-nephelometry on an ARRAY® immunochemistry system (Beckman Coulter, Villepinte, France). Pooled sera from normolipidic mice were used as standard; the apo CIII concentration therein was 25 μg/ml. A calibration curve from 4 μg/ml to 25 μg/ml was prepared by diluting the standard in 0.01 M potassium phosphate pH 7.2.
Plasma samples from mice overexpressing human AA4RP or not, maintained on a lipid-rich diet, and plasma samples from knock out homozygous (−/−), heterozygous (+/−) or wild type (+/+) mice were diluted 1/6 or 1/12 in the same conditions as the standard. Forty-two microliters of each calibration point and each sample from the different mice under study were incubated with 42 μl of mouse anti-apo CIII (in a reaction cell containing polyethylene glycol (PEG)). The apo CIII concentration in the sample is directly proportional to the light intensity reflected by the precipitate formed during the antigen-antibody reaction.

[2] = Triglyceride levels in AA4RP transgenic mice on a lipid-rich diet
Method: Samples from AA4RP transgenic mice or control mice maintained on a lipid-rich diet were diluted 1/3 or 1/5in physiological serum, then assayed for triglycerides against a calibration curve prepared with CFAS lipid calibrator, Ref. 759350 (Boehringer Mannheim GmbH, Germany). The calibration curve covered a concentration range of 16 to 500 μg/ml. 100 μl of each sample dilution or calibration point were deposited in each well of a 96-well titration plate. Next, 200 μl of triglyceride reagent Ref. 701912 (Boehringer Mannheim GmbH, Germany) were added to each well and the plate was incubated at 37° C. for 30 min. Optical densities (OD) were read on a spectrophotometer set at 492 nm. Triglyceride concentrations in each sample were calculated from a standard curve plotted as a linear equation y=ax+b, where y represents OD and x represents triglyceride concentration.

total lipase = experiment: Total lipase activity in post-heparin plasma (radiolabelled triolein, apo CII); settings: human AA4RP transgenic mice, FVB/N background
Method: as §1

HL = HL activity in post-heparin plasma (triolein, no apo CII, 1 M NaCl); settings: human AA4RP transgenic mice, FVB/N background
Method: as §1

B1: AA4RP: Protein of 366 amino acids (SEQ ID NO 1), apolipoprotein AIV related protein; overexpressed in transgenic mice (protein, listed as Homo sapiens)
chain: MASMAAVLTWALALLSAFSATQARKGFWDYFSQTSGDKGRVEQIHQQKMAREPATLKDSLEQDLNNMNKFLEKLRPLSGSEAPRLPQDPVGMRRQLQEELEEVKARLQPYMAEAHELVGWNLEGLRQQLKPYTMDLMEQVALRVQELQEQLRVVGEDTKAQLLGGVDEAWALLQGLQSRVVHHTGRFKELFHPYAESLVSGIGRHVQELHRSVAPHAPASPARLSRCVQVLSRKLTLKAKALHARIQQNLDQLREELSRAFAGTGTEEGAGPDPQMLSEEVRQRLQAFRQDTYLQIAAFTRAIDQETEEVQQQLAPPPPGHSAFAPEFQQTDSGKVLSKLQARLDDLWEDITHSLHDQGHSHLGDP
- LpL activity versus controls (LpL): significant increase
- Accumulation of triglyceride-rich particles after a lipid-rich diet [1]: not observed
- Apo CIII level versus control mice (apo CIII): approximately three times lower
- Apo CIII (apo CIII; plasma, mean): 30.70 µg/mL
- Triglyceride levels versus control mice ([2]; Student's t test p<0.001): significantly lower
- Triglycerides ([2]; mean): 0.361 mg/mL
- Total lipase activity versus controls (total lipase): significant increase
- HL activity versus controls (HL): significant increase

Reference: US20040198656A1, “Methods of screening molecules that are used to prevent cardiovascular diseases” (priority 2001, published 2004)
